{
  "source": "paper PMC11843584",
  "key": {"[1]": {"biological_target": "Cleaved TEV-BID (p7 and tBID domains after TEV protease cleavage) (human) (UniProt P55957)", "sequence (P55957 whole entry, the tested form may be a part)": "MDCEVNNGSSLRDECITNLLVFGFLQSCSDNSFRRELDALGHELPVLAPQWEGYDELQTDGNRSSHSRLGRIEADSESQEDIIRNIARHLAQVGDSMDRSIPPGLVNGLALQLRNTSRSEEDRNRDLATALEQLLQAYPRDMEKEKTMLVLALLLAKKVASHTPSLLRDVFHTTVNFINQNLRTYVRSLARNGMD", "test": "thioflavin T fluorescence; 5 μM protein with 50 μM peptide, ThT emission spectra against protein alone, peptide alone and buffer"}, "[2]": {"biological_target": "BID (BH3-interacting domain death agonist), N-terminal His6-tagged, wild type (human) (UniProt P55957)", "test": "light-scattering titration; peptide titrated into 5 μM BID, scattered photons of a 280-nm beam; 20 mM sodium acetate pH 6.3; also at 10, 24 and 37 °C, with 0.25% or 1% OG, and in 20 mM potassium phosphate pH 5.5 to 8.0"}},
  "data": [
    {"substance": "Humanin (HN), wild-type peptide", "values": [
      {"measurement": "increase in ThT fluorescence against WT BID", "setting": "[1]", "value": 15, "unit": "%"},
      {"measurement": "fold increase in light scattering at pH 8.0", "setting": "[2]", "value": 8, "unit": "fold"},
      {"measurement": "fold increase in light scattering with 1% (w/v) OG against no detergent", "setting": "[2]", "value": 5, "unit": "fold"},
      {"measurement": "fold increase in scattered photons at 37 °C against 24 °C", "setting": "[2]", "value": 2.5, "unit": "fold"},
      {"measurement": "fold increase in scattered photons at neutral pH against pH 6.0", "setting": "[2]", "value": 4, "unit": "fold"},
      {"measurement": "protein-to-peptide ratio at the plateau of scattered photons (protein to peptide)", "setting": "[2]", "value": 2}
    ]}
  ]
}
